Publication PMC3229523, “Identification of Lactoferricin B Intracellular Targets Using an Escherichia coli Proteome Chip” (PLoS ONE, 2011)
Ends that are not written are not given here. * marks the point of attachment. Biotin = O=C1N[C@H]2[C@H](CS[C@H]2CCCCC(=O)*)N1

Legend:
Test in all cases: peptide or protein array; E. coli proteome chip: purified His-tagged proteins printed in duplicate on Fullmoon slides, blocked with 1% BSA; 10 nM N-terminal biotinylated LfcinB with 1% BSA, room temperature, 1 h; detected with DyLight 649-labeled streptavidin, ratio to DyLight 549-labeled anti-His antibody; ProCAT normalisation, local cut-off; triplicate chips
Details in all cases: both partners purified
YobG = molecular target: T1, YobG (E. coli K-12, UniProt P64512 1-47)
T1 construct: YobG, E. coli K-12
T1 chain (looked up): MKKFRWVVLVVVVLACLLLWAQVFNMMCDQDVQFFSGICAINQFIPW

FimZ = molecular target: T2, FimZ (E. coli K-12, UniProt P0AEL8 1-210)
T2 construct: FimZ, E. coli K-12
T2 sequence (looked up): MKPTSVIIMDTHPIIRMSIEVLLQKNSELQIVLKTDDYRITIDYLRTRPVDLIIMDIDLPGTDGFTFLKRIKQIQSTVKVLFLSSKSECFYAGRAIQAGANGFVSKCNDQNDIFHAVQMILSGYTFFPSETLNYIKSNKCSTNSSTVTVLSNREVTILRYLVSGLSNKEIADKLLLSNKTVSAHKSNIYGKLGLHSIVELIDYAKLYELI

YnhE = molecular target: T3, YnhE (E. coli K-12, UniProt P77522 1-495)
T3 construct: YnhE, E. coli K-12
T3 sequence (looked up): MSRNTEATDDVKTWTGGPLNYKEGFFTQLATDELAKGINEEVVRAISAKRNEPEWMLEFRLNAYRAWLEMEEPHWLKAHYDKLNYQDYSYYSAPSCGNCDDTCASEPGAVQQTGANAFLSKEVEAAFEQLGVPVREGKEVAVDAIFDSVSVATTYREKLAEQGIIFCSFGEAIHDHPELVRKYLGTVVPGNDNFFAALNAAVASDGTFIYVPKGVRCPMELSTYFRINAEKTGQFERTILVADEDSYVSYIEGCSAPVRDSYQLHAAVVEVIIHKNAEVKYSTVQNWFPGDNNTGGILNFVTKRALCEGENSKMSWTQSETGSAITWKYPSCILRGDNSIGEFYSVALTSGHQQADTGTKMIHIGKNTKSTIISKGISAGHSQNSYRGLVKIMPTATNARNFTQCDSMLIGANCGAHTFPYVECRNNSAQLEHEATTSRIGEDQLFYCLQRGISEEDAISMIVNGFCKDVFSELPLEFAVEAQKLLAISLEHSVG

YdaU = molecular target: T4, YdaU (E. coli K-12, UniProt P76065 1-285)
T4 construct: YdaU, E. coli K-12
T4 sequence (looked up): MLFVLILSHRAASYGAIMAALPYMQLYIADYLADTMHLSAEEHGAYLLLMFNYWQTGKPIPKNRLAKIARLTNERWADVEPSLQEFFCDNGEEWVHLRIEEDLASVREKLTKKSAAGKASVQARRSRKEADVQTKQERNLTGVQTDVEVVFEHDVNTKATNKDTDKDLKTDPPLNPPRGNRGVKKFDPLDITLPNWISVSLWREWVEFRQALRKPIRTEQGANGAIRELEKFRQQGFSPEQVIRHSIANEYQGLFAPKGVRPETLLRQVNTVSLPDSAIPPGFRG

YdhS = molecular target: T5, YdhS (E. coli K-12, UniProt P77148 1-534)
T5 construct: YdhS, E. coli K-12
T5 sequence (looked up): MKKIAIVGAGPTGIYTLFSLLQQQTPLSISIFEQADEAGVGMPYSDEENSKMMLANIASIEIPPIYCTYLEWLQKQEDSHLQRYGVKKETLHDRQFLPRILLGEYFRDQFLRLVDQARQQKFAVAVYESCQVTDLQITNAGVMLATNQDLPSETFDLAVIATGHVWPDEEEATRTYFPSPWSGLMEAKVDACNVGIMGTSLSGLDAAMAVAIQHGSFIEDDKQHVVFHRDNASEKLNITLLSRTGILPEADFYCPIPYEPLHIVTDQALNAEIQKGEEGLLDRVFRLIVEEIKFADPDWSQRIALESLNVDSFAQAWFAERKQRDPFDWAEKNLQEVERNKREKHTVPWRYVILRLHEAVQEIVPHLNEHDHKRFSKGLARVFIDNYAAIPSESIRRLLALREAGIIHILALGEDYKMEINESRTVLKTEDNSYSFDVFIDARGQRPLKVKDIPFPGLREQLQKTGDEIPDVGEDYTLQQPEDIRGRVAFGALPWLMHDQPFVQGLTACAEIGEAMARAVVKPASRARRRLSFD

YjdI = molecular target: T6, YjdI (E. coli K-12, UniProt P0AF59 1-76)
T6 construct: YjdI, E. coli K-12
T6 sequence (looked up): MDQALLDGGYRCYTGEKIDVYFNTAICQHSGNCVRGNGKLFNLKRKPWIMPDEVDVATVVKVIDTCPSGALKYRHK

Measured: binding result

B1: N-terminal biotinylated Lactoferricin B (peptide, UniProt P24627 36-60, looked up)
peptide: Biotin-FKCRRWQWRMKKLGAPSITCVRRAF
modifications: ends and bridges not checked
notes: lactoferricin B (LfcinB), cationic antimicrobial peptide of 25 amino acids; also called biotinylated LfcinB; biotin-labeled LfcinB; source: bought: Kelowna Inc
binds: all assays above
